Laboratory results from patent US10196657B2, “Methods of producing 7-carbon chemicals via methyl-ester shielded carbon chain elongation” (INVISTA North America S.á r.l., priority 2012, dated 2019).

Experiments:
Format in all cases: biochemical
[1] = ω-transaminase activity assay, forward direction (pimelate semialdehyde to 7-aminoheptanoate); details: for acceptance of pimelate semialdehyde as substrate (formation of pyruvate from L-alanine, RP-HPLC): cell free extract, 10 mM pimelate semialdehyde, 10 mM L-alanine, 25° C., 4 h, against empty vector control, FIG. 16; for acceptance of pimelate semialdehyde as substrate, synthesizing 7-aminoheptanoate (conclusion from confirmed reversibility): concluded from reversibility of the ω-transaminase activity
Description: (§1) A sequence encoding an N-terminal His-tag was added to the genes from Chromobacterium violaceum, Pseudomonas syringae, Rhodobacter sphaeroides, and Vibrio Fluvialis encoding the ω-transaminases of SEQ ID NOs: 8, 10, 11 and 13, respectively (see FIGS. 7F and 7G) such that N-terminal HIS tagged ω-transaminases could be produced. Each of the resulting modified genes was cloned into a pET21a expression vector under control of the T7 promoter and each expression vector was transformed into a BL21[DE3] E. coli host. The resulting recombinant E. coli strains were cultivated at 37° C. in a 250 mL shake flask culture containing 50 mL LB media and antibiotic selection pressure, with shaking at 230 rpm. Each culture was induced overnight at 16° C. using 1 mM IPTG.
(§2) The pellet from each induced shake flask culture was harvested via centrifugation. Each pellet was resuspended and lysed via sonication. The cell debris was separated from the supernatant via centrifugation and the cell free extract was used immediately in enzyme activity assays.
Enzyme activity in the forward direction (i.e., pimelate semialdehyde to 7-aminoheptanoate) was confirmed for the transaminases of SEQ ID NO 10, SEQ ID NO 11 and SEQ ID NO 13. Enzyme activity assays were performed in a buffer composed of a final concentration of 50 mM HEPES buffer (pH=7.5), 10 mM pimelate semialdehyde, 10 mM L-alanine and 100 μM pyridoxyl 5′ phosphate. Each enzyme activity assay reaction was initiated by adding a cell free extract of the ω-transaminase gene product or the empty vector control to the assay buffer containing the pimelate semialdehyde and incubated at 25° C. for 4 h, with shaking at 250 rpm. The formation of pyruvate was quantified via RP-HPLC.

[2] = ω-transaminase activity assay, 7-aminoheptanol to 7-oxoheptanol
Description: A nucleotide sequence encoding an N-terminal His-tag was added to the Chromobacterium violaceum, Pseudomonas syringae and Rhodobacter sphaeroides genes encoding the ω-transaminases of SEQ ID NOs: 8, 10 and 11, respectively (see FIGS. 7F and 7G) such that N-terminal HIS tagged ω-transaminases could be produced. The modified genes were cloned into a pET21a expression vector under the T7 promoter. Each expression vector was transformed into a BL21[DE3] E. coli host. Each resulting recombinant E. coli strain were cultivated at 37° C. in a 250 mL shake flask culture containing 50 mL LB media and antibiotic selection pressure, with shaking at 230 rpm. Each culture was induced overnight at 16° C. using 1 mM IPTG.
as §2
(§3) Enzyme activity assays in the reverse direction (i.e., 7-aminoheptanol to 7-oxoheptanol) were performed in a buffer composed of a final concentration of 50 mM HEPES buffer (pH=7.5), 10 mM 7-aminoheptanol, 10 mM pyruvate, and 100 μM pyridoxyl 5′ phosphate. Each enzyme activity assay reaction was initiated by adding cell free extract of the ω-transaminase gene product or the empty vector control to the assay buffer containing the 7-aminoheptanol and then incubated at 25° C. for 4 h, with shaking at 250 rpm. The formation of L-alanine was quantified via RP-HPLC.

[3] = ω-transaminase activity assay, reverse direction (7-aminoheptanoate to pimelate semialdehyde); details: cell free extract, 10 mM 7-aminoheptanoate, 10 mM pyruvate, 25° C., 4 h; against empty vector control; FIG. 15
Description: as §1, §2
as §3, with “7-aminoheptanoate” for “7-aminoheptanol”, “pimelate semialdehyde)” for “7-oxoheptanol)”, “7-aminoheptanoate,” for “7-aminoheptanol,”, “pyruvate” for “pyruvate,”, “and” for “and then”, “L-alanine from pyruvate” for “L-alanine”

[4] = Carboxylate reductase activity assay, N7-acetyl-7-aminoheptanoate to N7-acetyl-7-aminoheptanal; details: purified enzyme enhanced by sfp gene product, 2 mM substrate, room temperature, 20 min; against empty vector control; FIG. 12
Description: The activity of each of the N-terminal His-tagged carboxylate reductases of SEQ ID NOs: 3, 6, and 7 (see Examples 4, and FIGS. 7B, 7E, and 7F) for converting N7-acetyl-7-aminoheptanoate to N7-acetyl-7-aminoheptanal was assayed in triplicate in a buffer composed of a final concentration of 50 mM HEPES buffer (pH=7.5), 2 mM N7-acetyl-7-aminoheptanoate, 10 mM MgCl2, 1 mM ATP, and 1 mM NADPH. The assays were initiated by adding purified carboxylate reductase and phosphopantetheine transferase or the empty vector control to the assay buffer containing the N7-acetyl-7-aminoheptanoate then incubated at room temperature for 20 min. The consumption of NADPH was monitored by absorbance at 340 nm.

B1: SEQ ID NO 10: Pseudomonas syringae ω-transaminase, Genbank Accession No. AAY39893.1 (protein, listed as Pseudomonas syringae)
chain: MSANNPQTLEWQALSSEHHLAPFSDYKQLKEKGPRIITRAEGVYLWDSEGNKILDGMSGLWCVAIGYGREELADAASKQMRELPYYNLFFQTAHPPVLELAKAISDIAPEGMNHVFFTGSGSEGNDTMLRMVRHYWALKGQPNKKTIISRVNGYHGSTVAGASLGGMTYMHEQGDLPIPGVVHIPQPYWFGEGGDMTPDEFGIWAAEQLEKKILELGVENVGAFIAEPIQGAGGVIVPPDSYWPKIKEILSRYDILFAADEVICGFGRTSEWFGSDFYGLRPDMMTIAKGLTSGYVPMGGLIVRDEIVAVLNEGGDFNHGFTYSGHPVAAAVALENIRILREEKIVERVRSETAPYLQKRLRELSDHPLVGEVRGVGLLGAIELVKDKTTRERYTDKGAGMICRTFCFDNGLIMRAVGDTMIIAPPLVISFAQIDELVEKARTCLDLTLAVLQG
acceptance of pimelate semialdehyde as substrate (formation of pyruvate from L-alanine, RP-HPLC) [1]: accepted pimelate semialdehyde as substrate | acceptance of pimelate semialdehyde as substrate, synthesizing 7-aminoheptanoate (conclusion from confirmed reversibility) [1]: accepted pimelate semialdehyde as substrate | acceptance of 7-aminoheptanol as substrate (formation of L-alanine, RP-HPLC) ([2]; cell free extract, 10 mM 7-aminoheptanol, 10 mM pyruvate, 25° C., 4 h, against empty vector control, FIG. 19): accepted 7-aminoheptanol as substrate | acceptance of 7-oxoheptanol as substrate, forming 7-aminoheptanol (concluded from reversibility) ([2]; concluded from reversibility of the ω-transaminase activity (Example 2)): accept 7-oxoheptanol as substrate | acceptance of 7-aminoheptanoate as substrate (formation of L-alanine from pyruvate, RP-HPLC) [3]: accepted 7-aminoheptanote as substrate

B2: SEQ ID NO 3: Mycobacterium smegmatis carboxylate reductase, Genbank Accession No. ABK71854.1 (protein, listed as Mycobacterium smegmatis)
chain: MTSDVHDATDGVTETALDDEQSTRRIAELYATDPEFAAAAPLPAVVDAAHKPGLRLAEILQTLFTGYGDRPALGYRARELATDEGGRTVTRLLPRFDTLTYAQVWSRVQAVAAALRHNFAQPIYPGDAVATIGFASPDYLTLDLVCAYLGLVSVPLQHNAPVSRLAPILAEVEPRILTVSAEYLDLAVESVRDVNSVSQLVVFDHHPEVDDHRDALARAREQLAGKGIAVTTLDAIADEGAGLPAEPIYTADHDQRLAMILYTSGSTGAPKGAMYTEAMVARLWTMSFITGDPTPVINVNFMPLNHLGGRIPISTAVQNGGTSYFVPESDMSTLFEDLALVRPTELGLVPRVADMLYQHHLATVDRLVTQGADELTAEKQAGAELREQVLGGRVITGFVSTAPLAAEMRAFLDITLGAHIVDGYGLTETGAVTRDGVIVRPPVIDYKLIDVPELGYFSTDKPYPRGELLVRSQTLTPGYYKRPEVTASVFDRDGYYHTGDVMAETAPDHLVYVDRRNNVLKLAQGEFVAVANLEAVFSGAALVRQIFVYGNSERSFLLAVVVPTPEALEQYDPAALKAALADSLQRTARDAELQSYEVPADFIVETEPFSAANGLLSGVGKLLRPNLKDRYGQRLEQMYADIAATQANQLRELRRAAATQPVIDTLTQAAATILGTGSEVASDAHFTDLGGDSLSALTLSNLLSDFFGFEVPVGTIVNPATNLAQLAQHIEAQRTAGDRRPSFTTVHGADATEIRASELTLDKFIDAETLRAAPGLPKVTTEPRTVLLSGANGWLGRFLTLQWLERLAPVGGTLITIVRGRDDAAARARLTQAYDTDPELSRRFAELADRHLRVVAGDIGDPNLGLTPEIWHRLAAEVDLVVHPAALVNHVLPYRQLFGPNVVGTAEVIKLALTERIKPVTYLSTVSVAMGIPDFEEDGDIRTVSPVRPLDGGYANGYGNSKWAGEVLLREAHDLCGLPVATFRSDMILAHPRYRGQVNVPDMFTRLLLSLLITGVAPRSFYIGDGERPRAHYPGLTVDFVAEAVTTLGAQQREGYVSYDVMNPHDDGISLDVFVDWLIRAGHPIDRVDDYDDWVRRFETALTALPEKRRAQTVLPLLHAFRAPQAPLRGAPEPTEVFHAAVRTAKVGPGDIPHLDEALIDKYIRDLREFGLI
acceptance of N7-acetyl-7-aminoheptanoate as substrate (NADPH consumption, absorbance at 340 nm) [4]: accepted N7-acetyl-7-aminoheptanoate as substrate

B3: SEQ ID NO 6: Mycobacterium massiliense carboxylate reductase, Genbank Accession No. EIV11143.1 (protein)
chain: MTNETNPQQEQLSRRIESLRESDPQFRAAQPDPAVAEQVLRPGLHLSEAIAALMTGYAERPALGERARELVIDQDGRTTLRLLPRFDTTTYGELWSRTTSVAAAWHHDATHPVKAGDLVATLGFTSIDYTVLDLAIMILGGVAVPLQTSAPASQWTTILAEAEPNTLAVSIELIGAAMESVRATPSIKQVVVFDYTPEVDDQREAFEAASTQLAGTGIALETLDAVIARGAALPAAPLYAPSAGDDPLALLIYTSGSTGAPKGAMHSENIVRRWWIREDVMAGTENLPMIGLNFMPMSHIMGRGTLTSTLSTGGTGYFAASSDMSTLFEDMELIRPTALALVPRVCDMVFQRFQTEVDRRLASGDTASAEAVAAEVKADIRDNLFGGRVSAVMVGSAPLSEELGEFIESCFELNLTDGYGSTEAGMVFRDGIVQRPPVIDYKLVDVPELGYFSTDKPHPRGELLLKTDGMFLGYYKRPEVTASVFDADGFYMTGDIVAELAHDNIEIIDRRNNVLKLSQGEFVAVATLEAEYANSPVVHQIYVYGSSERSYLLAVVVPTPEAVAAAKGDAAALKTTIADSLQDIAKEIQLQSYEVPRDFIIEPQPFTQGNGLLTGIAKLARPNLKAHYGPRLEQMYAEIAEQQAAELRALHGVDPDKPALETVLKAAQALLGVSSAELAADAHFTDLGGDSLSALSFSDLLRDIFAVEVPVGVIVSAANDLGGVAKFVDEQRHSGGTRPTAETVHGAGHTEIRAADLTLDKFIDEATLHAAPSLPKAAGIPHTVLLTGSNGYLGHYLALEWLERLDKTDGKLIVIVRGKNAEAAYGRLEEAFDTGDTELLAHFRSLADKHLEVLAGDIGDPNLGLDADTWQRLADTVDVIVHPAALVNHVLPYNQLFGPNVVGTAEIIKLAITTKIKPVTYLSTVAVAAYVDPTTFDEESDIRLISAVRPIDDGYANGYGNAKWAGEVLLREAHDLCGLPVAVFRSDMILAHSRYTGQLNVPDQFTRLILSLIATGIAPGSFYQAQTTGERPLAHYDGLPGDFTAEAITTLGTQVPEGSEGFVTYDCVNPHADGISLDNFVDWLIEAGYPIARIDNYTEWFTRFDTAIRGLSEKQKQHSLLPLLHAFEQPSAAENHGVVPAKRFQHAVQAAGIGPVGQDGTTDIPHLSRRLIVKYAKDLEQLGLL
modifications: Mycobacterium massiliense
acceptance of N7-acetyl-7-aminoheptanoate as substrate (NADPH consumption, absorbance at 340 nm) [4]: accepted N7-acetyl-7-aminoheptanoate as substrate

B4: SEQ ID NO 13: Vibrio fluvialis ω-transaminase, Genbank Accession No. AEA39183.1 (protein, listed as Vibrio fluvialis)
chain: MNKPQSWEARAETYSLYGFTDMPSLHQRGTVVVTHGEGPYIVDVNGRRYLDANSGLWNMVAGFDHKGLIDAAKAQYERFPGYHAFFGRMSDQTVMLSEKLVEVSPFDSGRVFYTNSGSEANDTMVKMLWFLHAAEGKPQKRKILTRWNAYHGVTAVSASMTGKPYNSVFGLPLPGFVHLTCPHYWRYGEEGETEEQFVARLARELEETIQREGADTIAGFFAEPVMGAGGVIPPAKGYFQAILPILRKYDIPVISDEVICGFGRTGNTWGCVTYDFTPDAIISSKNLTAGFFPMGAVILGPELSKRLETAIEAIEEFPHGFTASGHPVGCAIALKAIDVVMNEGLAENVRRLAPRFEERLKHIAERPNIGEYRGIGFMWALEAVKDKASKTPFDGNLSVSERIANTCTDLGLICRPLGQSVVLCPPFILTEAQMDEMFDKLEKALDKVFAEVA
acceptance of pimelate semialdehyde as substrate (formation of pyruvate from L-alanine, RP-HPLC) [1]: accepted pimelate semialdehyde as substrate | acceptance of pimelate semialdehyde as substrate, synthesizing 7-aminoheptanoate (conclusion from confirmed reversibility) [1]: accepted pimelate semialdehyde as substrate | acceptance of 7-aminoheptanoate as substrate (formation of L-alanine from pyruvate, RP-HPLC) [3]: accepted 7-aminoheptanote as substrate
